From the NTF2 design screens of Basanta et al. (2020) come the findings set out here.

A short description of the series: protease stability score; higher = more stable; yeast display proteolysis, trypsin and chymotrypsin.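 Also: log10 excess protease needed over predicted unfolded state with 0 meaning unfolded.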

For the sequence “DDTAAEVLKEQLDVLKQGDPDRVNQLVDPNAKRHVGDKNYRGMNSMADEDAQKMRNSRIKYTHWEQERSGDKVRVVVVYIEDHNGEPDTHRREFVFKASNGRFHQLNQDDDQ”, the protease stability score is -0.232.
Next, “DDTAIRIFEELQKAVENGDEREVQENLDEDAKIEYGNRTLHGREKAAKDYKRMHDQMEFTYDMKHFTVQGDKARLKVEYKATVNGKPYSDSVDVEVKIKNGKIKYIRFQFDEHKQRERDS”: 0.894; “DDTAMRVYQEIVKALQTGDPDKVRNNFDENVEYHVGDTKVHGRDEALERIKKRMDEIRVEIQLQKVETQGDKVIVRARYVNETNGKPKQSNNNIIFKVKNGKMTHMQEREDS”: -0.045; “DDTARQVYEDAADALRTGDEDEFRKQVDKDVRLTYGDKFIHGREEAARQLRDRQSTMRDEWDINEVQVRNGTINVDANKRNHENGQPQDVNLRVEVHAHNGKLTELRYTVQQ”: -0.177.
As for “DDTAVKIATRFWKAVETNDEQTLRDNLDPNVEVRYGDKTYHGMEDILKRLRHDADNMRHKVEIKDYRTHNGQANIDMVVRQEHNGKPERRRFKLHFRISNGRVRTMKLNDDS”, the protease stability score came out at 0.733.
As for “DDTAVRIWEKLLSALRTGNEQEVEKNLDPNATVVIGDKRVSGREEVKRMVRRLLTTMRLNVKSVENRDQPGHADVQYTVQFNHNGRPREDRWVVIVRVKNGKIQTVVMKENP”, the figure is 1.12.
Next, “DDTDQAEKMMEKLKDAFDTGDEDQVLKLADKDVKVDVGDKSYHGKEEYLDLFRHWLKKVDHLRLEVKHVNQNGDEISVTAKLVLDNNGETTDHTLHLVARSVNGDVVLQSMNNG”: 1.16; “DDTHTAEEWFHHLMNILKTNDPDRFANQFDKDARLHYGDTEVRGRENMIEFLRHMVKRIDHQSYTLLQIRVSNGRVEIKVRASMKYDGRVIDDNVEFEADLRGDKIKARQVNIG”: 0.564; “DDTKTARELVENLNEAFEKGDEDQFVSNLPPDARIEVGDRQVHGREQLKKWFDEMVERFDHMRIEVRHVEHHNGDVRVSARMQWQHNGREQSDSVEVVFVNDNGRLKMHVLRYG”: 1.5.
As for “DDTLKRRISELLRAEKHNDPDKINRLFDPNAHIEYGDHRIHGREELKRQITKRMKELRFRIDRVDLEVKGNHARLRIDMTQNHNGTPRRMILDVKINASNGTIHSVDVKLDG”, the figure is 0.297; as for “DDTMIRRLTEWWRAFEHNNSNQMKELADPNAKFSYGDKTVTGMDDIAKQLVNEAREMRVEIRHMKVEQHGEKVRVDFEYEIRDNGRPHTNRVVLEAHQHNGKIQSVQVKDDR”, 0.356.
As for “DDTNVRKVKEYLKAVEHGDEETLRENVDENATVQVGDHSIHGMDNIAKKIKKDRDELRWEIKELEAEAHNGHVNVRVDARYEVNGNPIEDKFTMHFKFENGRVESVEIRVPEEFQKRVDR”, the protease stability score was determined as 0.165.
Next, “DDTQAREQAHRFMEAMRTGDPDTLRKLMDKDVRVTVGDHTYHGRESVAHAVITMVESIDHISVKDIKVENGTARVDFVVTVNGRRQSYDAVLEVDNGRIRYVQMHEK”: 0.857; “DDTQRKRIEEYWTAVKTGDEDRLTELVDEDARVRIGDKEWSGREEIVRRIHDHVRQMRVSLEFKRITVNNGKVQLHAEVEYEHNGKPDTAKVELSMELTNGKFKSNDMQIHK”: 0.607; “DDTRKAKELADRIVKAIKHGDEEYYERLVDKDVHADVGDRTVRGSETLVNTFQHEVEKADHIDAKVRSVSAHNGKIHISITVVVDVNGQQNSKEYTVIANTSNGRVRVEQINFK”: 0.454.
As for “DDTRVKFALHLIKLEETGDEDKLRELMDPNAKISVGDKTYHGREEIVRELRRENHEMRVRIKQFRSTASGEKVRITMDAEFEHNGKPDRFELEVVFDFTNGRVKHIELHERR”, the figure is 1.22; as for “DDTTRAKEWAEELNRIYRNGDPKELEKQMDKDVRLIIGEKHIHGRSQAMNWMRELMKKADHIELRIHDVKVQGENVTVVVVYRINVNGRDVQRRVIIVAEVHNGHLKIKEMHES”, 1.88.
Next, “DDTVKEQAEKFFTAQNTGNPDQIANLVDPNARFTIGDKEYHGRENFKSWMETVRDKMDVDYQITDLKTDENHADVVAEYTSTHNGQPERRRMRVDMRLSNGRMKEVNIEDRS”: -0.503; “DDTVQRMVDKFLENLKTGNEEDISKMADPNVSLNYGDKRIHGREQLMQWVERQEKEMRVEFQIRHVDVHGNKAHVTADMRIHNNGDPDNARVQFVVNAQGDKVKTITFHKTR”: -0.14; “DDTVRELVKQLRTALESNDEKKVKRLVDPNAQFQYGDKTLHGMTHAASRRVKEHQEIRLSIKKFHVNVSGDHVRVEFRYEVNVNGRPRKASATFTARFENGKMKEQRLRFDEDEYRKLKK”: 0.063.
Regarding “DEDAAKDYETIVKQQESGDEDKVRQNVDPNAKWHIGEKKVHGRESLANEVHRVRRQMNERMEVKTVKDQGDKANVEMRVVQQHNGEPKDYTMQVDVHAHNGRLREVKATEQS”, the protease stability score is -0.388.
Next, “DEDAARKIRKLVEDWANGDPQSVADQMDENAEVHIGDQTLHGRDHVRKFVEKLSEQIRISVQSVTVRASGNHITAHVQMEVDVNGHPDTITFRIHADVDNGRIKSMEYRMDEQEQRKRTS”: 0.346.
In turn, “DEDAARRMLEFLRQMEQGNEHELRHLADPNARMRVGDHTLHGMEDIAREQVERNRRLRFSNKVDRIKNDGDKVNLQIRFQIDVNGKPFTDVVSVNVHEHNGKIEFVEFRVPEEFREKVKR” gave a protease stability score of 0.1.
As to “DEDAARSAEHLQRHNDFDEFARRADENVRLRVGDFRFQGREQVIRFMKRFTDRFDHVQFRRMDFHGNRMQAEFVAEVNGKTVKMKESFQIDNGRVHSVTQEATSEEDQEELKRLID”, the protease stability score is 0.254.
Next, “DEDADRKFQDMVENEHRGDNDKLKKMADKNVKFTVGDKSIHGMEDYATEVRKRKERSRVRYKDVRSNDHNGRVVVKFDAQRNHNGQPKDFHVTVHFRMENGKLKEMEVRTDQ”: 0.052.
Next, “DEDADRVFEEFIRAKTRGDPDRLSQLVDPNVRMHVGDQELRGRDTVRRFLHEVLHHARNDIHIQSMEVDGDHVSVEFKATTEHNGQPRTDRMTASAKIDNGRIKSLQEHSKK”: -0.297.
In turn, “DEDAEKHWRTFLRNQKTGDEQKMRDQVDPNARASIGDQEVEGREKIVRELVEEFRHMHVQINWKSLTAHNGKVHAHADAQVDHNGRPQTYKITASAQFSNGKIKEFKMQRRP” showed a protease stability score of -0.013.
Next, “DEDAEREIDRLVRDNNEEDIERLMPEDAKMQVGDKTVTGRENIATQIKRLNQKADHRRIDKITLQGERVVINFTIVVNGTKFKAKIVLHAHNGKIKVVVLRARDEDLDREMSKVMN”: 0.028; “DEDAERHVTEMIHAYKHNNPEKVQTYMDKHVKIKVGDKTVKGREERAKELRKQKDQMRVDYDVHSMNVKGDKITARLRVDITVNGQPHTFEYHLIVKWTNGKIQELSVEFPEEDQKKQSR”: -0.086.
As for “DEDAERLINQLLTAERRGNPDQVMQQVDKNATQTVGDKHIHGREDISREVEKRKRESRVDRKVESIDIRGNQARIEVHFEEDRNGKPVTSAQTMDITFHNGVVHERKVQDDS”, the figure is -0.743; as for “DEDAERRMREQLKVFNRGNPDQMVKYMDKDARIEVGDTVVEGREDWRHEIDKQKKEAKYKIDVKRVDVDGDDLTIDATISVDHNGKPREKKLIVEAKLHNGKLKHARYDNRG”, -0.05.
Next, “DEDAFRVWRRLLSAIRDGDEDKVRNQADENATATIGDKTWHGMTTLAHELVHEARNLRFTQRITHYSVDNGRVNADYRFTKNENGRPQEDRVLVRFVAHNGQLKSVHNTKIS”: 0.131.
For the sequence “DEDAHKRYEHIERVMEHGDESTLEQLMDPNARIQVGDKEVRGMNKWAKEVAEEIRQMEVRVDIKSVDVRGNRVRVEAKYTVNVNGRPKTATKEVVLDFENGRVSYVQVRFDPDRKKSIDQ”, the protease stability score amounted to 0.443.
Take “DEDAHRLVEEFWRALKDGDSEQIKELADKDVHVQVGDTKVHGREELASQVQRERDQMSVDLKIDHVELNEDHVDVEAKMVVEHNGKPKTNKAKLDFRFHNGKLQMMRRQTRQ”: the protease stability score was -0.184.
